Source: the nanobody polyreactivity screen of Harvey et al. (2022)

Experiment: yeast display, Sf9 membrane polyspecificity reagent, FACS + sequencing; frameworks hold sequencing errors
Outline: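 A nanobody's polyreactivity label depends on the gate it was sorted from. Yeast display cells were stained with 10% biotinylated, detergent-solubilized Sf9 membrane reagent for 1 hour at 4 °C, enriched on streptavidin microbeads and sorted by FACS. The low and high (top ~1%) gates were set on anti-HA fluorescence for expression and streptavidin fluorescence for reagent binding.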

Row | Sequence | polyreactivity (PSR sort gate)
1 | QVQLVESGGGLVQAGGSLRLSCAASGRIFRHYAMGWYRQAPGKVRELVAAIRWSGGSTYYADSVKGRFTISRDNAKNTVYLQMNSLKPADTAVYYCATRDAVGHRPSGPYQLYDYWGQGTQVTVSS | low polyreactivity
2 | QVQLVESGGGLVQAGGSLRLSCAASGSTFKLYAMGWYRPAPGKERELVAAISYRGGTTYYADSVKGRFTISRDNAKNSVYLQMNSLKPEDTAVYYCAAGWRPRYLRDASKYDYWGQGTQVTVSS | low polyreactivity
3 | QDQLVESGGGLVQAGGRLRLSCAASGSIFLKYSMGWYRQAPGKVRELVAVISQSGGRTYYADSVKGRFTISRDNAKNTVYLQMNILKPEETAVYYCNVDISWLRRKFDYWGQGTQVTVSS | low polyreactivity
4 | QFQLVESGGGLVQAGGSLRLSCAASGRIFVRYAMGWYSQAPGKERQLVAAISKSGGSTYYADSVKGRYTISRDNAKNTVYLQMNSLNPEDTAVDYCAADYTGFFPDGSDVDFDYWGQGTQVTVSS | low polyreactivity
5 | QVQLVESGGGLVQAGGSLRFSCAASGLTFSWNAMGWDRQAPGQERELVAAITSSGTSTYYADSVKGRFSISRDNAKITVYLQMHSLKPEDTAVYYGAAEGDYWGWEDDYWGQGTQVTVSS | high polyreactivity
6 | QVQIVETGGGLVQAGGSLRLSCAASGRIFFRNPMGWYRPAPRKEREFVAAINWSGGSTYYADSVKGRFTISRDNAKNTVYLQMNSLKPEDTAVYYCAARGSRGGRRGATASMDYWGQGTQVTVSS | high polyreactivity
7 | QVQLVESGGGLVQAGGSLRLSCAASGRIFAYYAMGWYRQAPGKERELVAVISKSGGSTNYADSVKGRFTISRDYAKNTVYLQMNSLKPEDTAVYYCAKRAYDPEMYYWGQGTQVTVSS | low polyreactivity
8 | QVQLVESGGGLVQAGGSLRLSCAACGRIFGGNTMGWYRQAPGKQRELVAAITVRGGSTYYADSVKGRFTISRDNAKNTVYLQMNSLKPEDTAVYYCAARRRIFPPRFGYWGQGTQVTVSS | high polyreactivity
9 | QVQLKESGGGLVQAGGSLRLSCAASGNIVDADIMGWYRQAPGKERELVASITDGGSTNYADSVKGRFTISRDNAKNTVYLQMNSLKPEDTAVYYCAAIAYPDIPTYFDYDSEYFYWGQGTQVTVSS | low polyreactivity
10 | QVQLVESGGGLVQAGGSLRLSCAASGGTFKTYAMGWYRQAPGKERELVAAITSSSSRTHYADSVKGRFTISRDNAKYTVYLQMNSLKPEVTAVYYCAAAIPSYTRTGYWGQGTQVTVSS | high polyreactivity
11 | QVQLVESGGGLVQAGGSLRLSCAASGRIFYRYAMGWYIQAPAKERELFAAITGSGGSTYYADSVKGRFTISRDNAKNTVYFQMNSLKPEDTAVYYCNAVERSAFRGVRFDYDYWGQGTQVTLSS | high polyreactivity
12 | QVQLVESGGGLVQAGGSLRLSCGASGRIFGYNAMGWYRQARGKERELVAAITTSGGSTYYADSVKGRFTLSRDNEKNTVYFQMNSLKQEDTAVYYCARDSLQVFYPYASDDYWGLGTQVTVSS | low polyreactivity
13 | QLQRVESGGGLVQAGGSLRLSCAASGSIFSPYAMGWYRQAPGKERELVAAISTRGGNTYYADSVKGRFTISRDNAKNTVYLQMNSLKPEDTAVYYCARKIRREGRYDYWGQGTQVTVSS | high polyreactivity
14 | QVQHEESGGGLVQAGGSLRLSCAASGRTFLQYAMGWYRQAPGKERELVDAITTSGGDTYYSDSVKGRFTISRDNAKNTVYLQMKSLKPEDTAVFYCNADFRVYIPHVPYLVDFYYWGQGTQVTVSS | low polyreactivity
15 | QVQLVESWGGVVQAGVSLRLSCAASGINFYSYAMGWYRQAPGKERELVAAISNNGGSTYADSVKGRFTISRDNAKNTVYLQMNSLKPEDTAVYYCAADPTGGVGFDGYYWGQGTQVSVSS | low polyreactivity
16 | QVQLVESGGGLVQAGGSLRLSCAASGRIFYSYAMGWYRQAPGKERELVAAIRSTGSTNYADSVKGRFTISRDNAKNTVYLQMNSLKPEDTAVYYCAARTSYRSSLYGYWGQGTQVTVSS | high polyreactivity
17 | QVQLVESGGGLVQAGGSLRLSCASSGITLAGNAMGWYRQAPGKERELVAAISASGGRTSYADSVKGRFSISRDNAKNTVYLQKNSLKPEDTAVYYCNTRRYPTRPSYDYWGQGTQVTVSS | high polyreactivity
18 | QVQLVESGGGLVQAGGSLRLSCAASGSSFRYTMGWYRQAHGKQRELVATITYSDGSTYYADSVKGRFTISRDNAKNTVYFQMNSLKPEDTAVYYCARTTPTGRQYRRYDYWGQGSQVTVSS | low polyreactivity
19 | QVQLVESGGGLVQAGGSLRLSCAASGRTFKLYAMGWYRQAPGKERELVAALSIRGTSTYYADSVKGRFTISRDNAKNTVYLQMNSLKPEDTAVYYCAAEDRYGYYLVRWQGYYYWGQGTQVTVSS | low polyreactivity
20 | QVHLVESGGGLVQAGGSLRLSCAASGSIFVLYAMGWYRQAPGKERELVAAISRGVGGTNYADSVKGRFTISRDNAKNTVYLQMNSLKPEDTAVYYCAADWLWAWHYYGAMDYWGQGTQVTVSS | high polyreactivity
21 | QVQLVESGGGLVQAGGSLRLSCAASGRTFLTNAMGWYRQAPGKERELVAAISSGASTNYADSVKGRFTISRDNAKNTVYLQMNSLKPEDTAVYYCAAQLTDYQSKTLSYDYWGQGTQVTVSS | low polyreactivity
22 | QVQLVESGGGLVQAGGSLRLSCAASGFTFAVYVMGWYRQAPGKERELVATISFSVGSTYYADSVKGRFTISGDNAKNTVYLQMNRLKPEDTAVYYCNADPPPEYYPDKDNYWGQGTQVTVSS | low polyreactivity

Row | Sequence | polyreactivity (PSR sort gate)
23 | QVQLVESGGGLVQAGGSLRLSCAASGRIFTLYAMGWYRQAPGKERELVAAISYGGGGTYYADSVKGRFTISRDNAKNTVYLQMNRLKPEDSAVYFCATDDPLSQINEQGMDYWGQGTQVTVSS | low polyreactivity
24 | QVQLVESGGGLVQAGGSLRLICAASGSIFAYNAMGWYRQAPGKERELVAAITDSGGSTFYADSVKGRFTISRDNAKNTVYLQMNSLKPEDTAVYYCATSGDRLVWGQGTQVTVSS | low polyreactivity
25 | QVQLVESGGGLVQAGGSLRLRCAASGYIIKYNAMGWYRQAPGKERELVAAISSIGGRTYYADSVKGRFTISRDNAKNTVYLQMNSLKPEDTAVYYCNAVGGRYTGWRYDYWGQGPQVTVSS | high polyreactivity
26 | QVQLVESGGGLVQAGGSLRLSCAASGSTFDDNAMGGYREAPRKERELVAGISDGDDSTNYADSVKGRFTISRDNAKNTVYLQMNSLTPEDTEVYFCNARYVRTYGVRFGYDYWGQGTQVTVSS | low polyreactivity
27 | QDQLVESGGGLVQAGGSLRLSCAASGRIFEGNAMGWYRQAPGKEREFLAAISDGGSTNYADSVKGRFTISRDNAKNTVYLQLNSLKPEETAVYYCNVGANVYMLYFPSRGGVYDYGYWGQGTQVNVSS | low polyreactivity
28 | QVQLVESGGGLVQAGGSLRLSCAASGINFGYYAMGWYRQAPGKERELVAAISRRGGSTYYADSVKGRFTISRDNAKNTVYLQMNSLKPEDTAVYYCYKRRAAGGFPYVYWGQGTQVTVSS | high polyreactivity
29 | QVQLVESGGGLVQAGGSLRLSCAASGFTFKFNTMGWYRQAPGKERELVAAISWRGGDTSYADSVKGRFTISRDNAKNNVYLQMNSLKPEDTAVYYCAASPRYPYWYDYWGQGTQVTVSS | low polyreactivity
30 | QVQLVESGGGLVQAGGSLRLSCAASGSIFAGYAMGLYRQAPGKERELVAAISRSGDSTYYADSVKGRFTISRDNAKNTVYLQMNSLKPEDTAVYYCAAVLSYSYVRYNYWGQGTQVTVSS | high polyreactivity
31 | QVQLVESGGGLVQAGGSLRLSSAASGFTFPWYAMGWYSQAPGKEREVVAVISSSGGSTYYADSVKGRFTISRDNAKNTVYLQMNSLKPEDTAVYYCARAYGGRGYDIRYDYWGKGTQVTVSS | high polyreactivity
32 | QVQLVESGGGLVQAGGSLRLSCAASGSTFAGNTMGWSRQAPGKERELVAAITWNGGRTRYADSVKGRFTISRDNAKNTVYLQMNSLKPEDTAVYYCNAGPWYENMDYWGQGTQVTVSS | high polyreactivity
33 | QVQLVESGGGLVQAGGSLRLISAASGSTFKIYAMGWYRQAPGKERELVAAITWSGGSTYYADSVKGRFTISRDNAKNTVYLQMNSLKPEDPAVYYCAAVQTYSRYYYWGQGTQVTVSS | high polyreactivity
34 | QVQLVESGGGLVKAGGSLRLSCAASGFTFGYYTMGWYRQAPGKERELVAAISSSGGSTHYADSVKGRFTISRDNAKNTVYLQMNSLKPEDTAVYYCAARYINRYPKAQPTDRSIYYWGQGTQVTVSS | high polyreactivity
35 | QVQLVESGGGLVQAGGSLRLSCAASGSTFQWYAMGWYRQAPGKERELVAAINKSGGTTYYADSVKGRFTISRDNAKNTVYLQMNSLKPEDTAVYYCAADTQQRGVYPRWWNPEFDYWGLGTQVTVSS | low polyreactivity
36 | QVQLVESGGGLVQAGGSLRLSCAASGRIFYGYAMGWYRQAPGKERELVASISRRGSSTYYADSVKGRFTISRDNAMNTVYLQMNSLKPEDTAVYYCAAGYYPFNYWGQGTQVTVSS | high polyreactivity
37 | QVQLVESGGGLVQAGGSLRLSCAASGSISYDYAMGWYRQAPGKERELVASITSRGGSTYADSVKGRFTISRDNAKNTVYLQMNSLKPEDTAVYYCAADAIPNLIFISLPFGLDYWGQGTQVTVSS | low polyreactivity
38 | QVQLVESGGGLVQAGGSLRLSCAASGFIFGSYAMGWYRQAPGKERELVAAISYRGGTTYYADSVKGRFTISRDNAKNTVYLQMNSLKPEDTAVYYCAADSPENRYNYWGQGTQVTLSS | high polyreactivity
39 | QVQLVESAGGLVQAGVSLRLSCAASGRTFYWYTMGWYRQAPGKERELVAAISSAGSTYYADSVKGRFTISRDNAKNTVYLQMNSLKPEDTAVYSCAAGSHSGRAYYYWGQGTQVTVSS | high polyreactivity
40 | QVQLVESGGGLVQAGGSLRLSCAASGSTFGDYAMGWYRQAPGKERELVAAISSSGGSTYYADSVKGRFTISRDNAKNTVYLQMNSLKPEDTAVYYCNADRFLYYARTYWYFWFGYWGQGTQVTVSS | low polyreactivity
41 | QVQLVESGGGLVQAGGSLRLSCAASGSTLRPYGMGWYRQAPGKERELVATIRSSSGRTYYADSVKGRFTISRDNAKNTVYLQMNSLKPEDTAVYYCARRYITNIKYDYWGQGTQVTVSS | high polyreactivity
42 | QVQLVESGGGLVQAGGSLRLSCAASGRTFVRNAMAWYRQAPGKERELVAAITYGGGNTYYADSVKGRFTISRDNAKNTVYLQMNSLKPEDTAVYYCAKRRLYWSGQGWVRTYGYWGQGTQVTVSS | high polyreactivity
43 | QVQLVESGGGLVQAGGSLRLSCAASGSIFYEYAMGWYRQAPGKERELVAAINWDGGTYYADSVKGRFTISRDNAKNTVYLQMNSLKPEDTAVYYCAKPYDWGVYSQSDSDYWGQGTQVTVSS | low polyreactivity
